Measured values taken from paper PMC4379099 (PLoS Pathogens, 2015).

Columns and labels:
[1] = biological target: T1, EFR::XA21::GFP chimeric receptor (EFR ectodomain 1-649 fused to XA21 651-1025, carboxyl-terminal GFP, transgenic rice) (Arabidopsis | rice (Oryza longistaminata)) (UniProt C0LGT6)
T1 sequence: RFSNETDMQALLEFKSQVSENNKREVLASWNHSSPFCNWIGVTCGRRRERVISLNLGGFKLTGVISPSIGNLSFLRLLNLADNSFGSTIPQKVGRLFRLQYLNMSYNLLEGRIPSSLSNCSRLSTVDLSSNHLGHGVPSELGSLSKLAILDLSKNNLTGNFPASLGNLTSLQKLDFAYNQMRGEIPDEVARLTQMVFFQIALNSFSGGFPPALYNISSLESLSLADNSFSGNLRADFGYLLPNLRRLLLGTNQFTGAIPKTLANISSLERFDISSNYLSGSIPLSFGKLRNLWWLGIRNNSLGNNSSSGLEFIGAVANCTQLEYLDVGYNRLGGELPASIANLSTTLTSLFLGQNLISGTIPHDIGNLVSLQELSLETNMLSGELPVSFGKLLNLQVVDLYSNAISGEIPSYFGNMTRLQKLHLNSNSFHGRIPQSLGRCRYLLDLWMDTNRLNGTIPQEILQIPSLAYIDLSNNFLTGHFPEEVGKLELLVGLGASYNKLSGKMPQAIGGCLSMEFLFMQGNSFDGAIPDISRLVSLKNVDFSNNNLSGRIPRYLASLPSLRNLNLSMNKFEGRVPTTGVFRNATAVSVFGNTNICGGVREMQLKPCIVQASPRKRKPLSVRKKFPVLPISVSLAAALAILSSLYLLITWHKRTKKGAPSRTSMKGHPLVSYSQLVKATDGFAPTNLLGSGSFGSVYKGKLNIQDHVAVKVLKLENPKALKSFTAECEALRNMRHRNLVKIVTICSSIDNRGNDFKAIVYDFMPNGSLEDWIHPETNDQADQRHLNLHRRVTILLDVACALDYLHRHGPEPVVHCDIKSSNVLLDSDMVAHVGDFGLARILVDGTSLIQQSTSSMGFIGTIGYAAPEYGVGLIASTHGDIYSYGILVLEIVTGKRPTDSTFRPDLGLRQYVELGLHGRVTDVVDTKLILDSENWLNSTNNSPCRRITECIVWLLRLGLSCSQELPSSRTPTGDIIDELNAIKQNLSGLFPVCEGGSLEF

[2] = biological target: EFR::GFP (full-length Arabidopsis EFR with a carboxyl-terminal GFP fusion, transgenic rice) (Arabidopsis) (UniProt C0LGT6)
MAP kinases = type: cell-based, rice

elf18_(E.coli) (from UniProt P0CE47 1-18) (peptide)
EC50 of ROS production in mature rice leaves (dose response curve) [1]: 0.3 nM | EC50 of ROS production in mature rice leaves (dose response curve) [2]: 0.3 nM

chitin
MAP kinase activation (phospho p44/42 bands, ~47 kDa and 40 kDa) (MAP kinases): increase of two distinct bands
